# From the DeepSol protein solubility set
# Assay: soluble on expression in E. coli; label from the status in PepcDB or PDB records
row,Sequence,soluble on expression in E. coli
1,MSLSSERLIYLPLGGAGEIGMNAYVYGYGKPGKERLIVVDLGVAFPDMDTSPGVDLIIPDIAWLEERRDQIEAIFITHAHEDHIGAVAHTYDRLRAPIYTRKFTANIAKRKMDEYGHPDDAVTTVAPWPQQTTVGPFKVGFLPMSHSIPESSSLVIDVAGDRLIHSGDFKIDMTPGVGEPYDPELWADVSKDGVKALICDSTNVFSQHAGRSEATVGPEIEKLLGTAQGMVVATTFASNVARVKTLADAGERAGRSVVLLGRAMKRMVEASLETGVMKDFPPVVSPEEARGIPRENLMLLVTGSQGERRAASAQLARGKYMGLEMKEGDMFLFSSKTIPGNERGVIKVINAFSEMGVDIVDDSSGLYHVSGHANRPDLETLHDVVKPQILIPMHGEHRHLREHTKIANAKGMKGVLAVNGMMIDLSGNEPKVVEYVDSGRTYLDGSTQIGAMDGVVRDRIRMALNGHVTVTVILDENDEALGDPWVDAMGLPEQGRSKTSLVDVLEADLAQFLGRANAKTLRDDDKLHDGLKRTVRQSANDEIGKKPEVTIVVSRLSEGHHHHHH,soluble
2,GSHMLKEVWEELDGLDPNRFNPKTFFILHDINSDGVLDEQELEALFTKELEKVYDPKNEEDDMREMEEERLRMREHVMKNVDTNQDRLVTLEEFLASTQRKEF,soluble
3,MGSDKIHHHHHHMSTNISWTDETINPIVGCSRISAGCQNCYASTAAASARLQQFPQYQKVKDWNGTVEFAESALLKPLSWKKPKRIFVCSMSDLFHENVPDQWRDRVFGIMAAAHWHIFQVLTKRPLNALKYFQNFNLAQRIKDAGNLVCKPELPLKNVWFGVTCENQEMADKRIPILLQIPAKVRFLSCEPLLEEIDLSEVFGLYEYEEGKFALKVGSRWESSPDWVIVGGESGKDARVCHIDWVRSLTRQCQAAEVPVFVKQLGSNCIESLPYIAGVPSTDYQFKTSDRKGGDISEFPEDLQVRKFPDIHKTR,not soluble
4,MAHHHHHHMCAALSPAHFQLRVKILSEAAKHVPETGFTNAALAASLKSIGVEDITDRTLSQIFNRGFPIALVEHIVKSTNLHVQRELESVFSKDAIIKSIDSNVDAFVQNRLLLPTEKNVVEKAILSKLELLIPLAEHWPSAVALEYLPANLPYTVMNLAEFVDTTVYYMERATTLGELLDPARRILRSKAMASRIRSGEVDSNGASPTSEFLKSFLKGISLSSGPYAGPSALNLGWYCKRAQVAIVYGAVTTSLLGDVSQNAADTRSLTKAAVETVF,not soluble
5,MITDCCPGFGSVAKYIAVSMLEASFDVASMAKTSTKVFILEVMGRHAGWIAAAGGLASNEDHEVPIIILFPEVTFDQEKFLAKTDHYVKEYGYCTVVVSEGVKGTDGKFLSDQGLRDAFGHAQLGGVAPVIANIVKNGLGLEHHHHHH,soluble
6,MGSDKIHHHHHHMFIVSKQTTTEYGTGCFAAPSSSCQSEYNPKVENDAVAHNSISGLRGSLRRNSSNLSSQLTALQETCLADAAQIEINCSTSNAKQAFFVKIEVPTGEQGVLHFSPSSGDISQVFTPIQNGCGHGVWKFVVCTMENGSEIAHSQVSRNLDGVGILFFNVYEDLEIRLAQQEFLHISHCHTRRH,not soluble
7,MSLVIVMYSIKMRASKNGKHISGAERIVNKDEIEETVKELVRRALTHENGTPDFINIKIEEIKEEITYINHLPIKTIHCKDKEEARETAKKILRNEGIPDSVIDYAYEIIDKGGMRGAAILNLKGERLEPDKERGVRVKNIDTTKELKEKILKENLGTERTVDAIAIASKVIHLGVIAELCTSDNKSYTTGYVATKKGYFRITNLKKEGESGGRVFFVKDDVDIEDLINKLENKPEGHHHHHH,soluble
8,SLHPDTILHNGRVTTLDRGNPNATAVAIKDGLFVEVGSDAEVMALAGSETKIIDLKGKRVLPGLIDNHTHVIRGGLNFNMELRWDGVRSLADAMYMLKRQVAITPAPQWVRVVGGFTEHQFVEKRLPTIEEINAVAPDTPVFLLHLYDRALLNGAALRAVGYTKDTPNPPGGEITRDANGNPTGLLLAKPNAGILYSTLAKGPKLPLDYQVNSTRHFMRELNRLGVTGVIDAGGGFQNYPDDYEVIQKLSDENQMTVRLAYNLFTQKPKQEKEDFLNWTSSVKYKQGNDYFRHNGAGEMLVFSAADFEDFRQPRPDMPPEMEGELEDVVRILAENRWPWRLHATYDETISRALDVFEKVNRDIPLEGLNWFFDHAETISDRSIDRIAALGGGIATQHRMAYQGEYFVERYGQGVAEATPPIARMLEKGVNVSAGTDATRVASYNPWVSLFWMVTGKTVGGMQLYPRANCLDRETALRMWTEKVTWFSNEEGKKGRIEKGQFADLVVPDKDYFSCAEDEISFLTSELTMVGGKIVYGAGDFRVLDESNIPPAMPDWSPVRTFGGYAAWGEPQGAGKNSLRRAAITSCGCASDCGVHGHDHAGAWTSKLPIADLKGFFGALGCSCWAV,soluble
9,HHHGIRMTRISREMMKELLSVYFIMGSNNTKADPVTVVQKALKGGATLYQFREKGGDALTGEARIKFAEKAQAACREAGVPFIVNDDVELALNLKADGIHIGQEDANAKEVRAAIGDMILGVAAHTMSEVKQAEEDGADYVGLGPIYPTETKKDTRAVQGVSLIEAVRRQGISIPIVGIGGITIDNAAPVIQAGADGVSMISAISQAEDPESAARKFREEIQTYKTGR,soluble
10,MVSNPVHGLPFLPGTSFKDSTKTAFHRSQTLSYRNGYAIVRRPTVGIGGDRLQFNQLSQAELDELASKAPVLTYGQPKQAPPADFIPAHVAFDKKVLKFDAYFQEDVPMSTEEQYRIRQVNIYYYLEDDSMSVIEPVVENSGILQGKLIKRQRLAKNDRGDHYHWKDLNRGINITIYGKTFRVVDCDQFTQVFLESQGIELNPPEKMALDPYTELRKQPLRKYVTPSDFDQLKQFLTFDKQVLRFYAIWDDTDSMYGECRTYIIHYYLMDDTVEIREVHERNDGIDPFPLLMNRQRVPKVLVENAKNFPQCVLEISDQEVLEWYTAKDFIVGKSLTILGRTFFIYDCDPFTRRYYKEKFGITDLPRIDVSKREPPPVKQELPPYNGFGLVEDSAQNCFALIPKAPKKDVIKMLVNDNKVLRYLAVLESPIPEDKDRRFVFSYFLATDMISIFEPPVRNSGIIGGKYLGRTKVVKPYSTVDNPVYYGPSDFFIGAVIEVFGHRFIILDTDEYVLKYMESNAAQYSPEALASIQNHVRKREAPAPEAESKQTEKDPGVQELEALIDTIQKQLKDHSCKDNIREAFQIYDKEASGYVDRDMFFKICESLNVPVDDSLVKELLRMCSHGEGKINYYNFVRAFSN,soluble
11,MDGALLIDKPKGITSTEVVERVKEKLKARKAGHTGTLDPIATGLLIILINKATRFSQFFIGMPKTYRFTVKFGAETDTYDAQGKVVETYEGELNCDKLKEVLNEFRGEILQTPPPFSAKKIKGRRAYELARKGKKVELKPVKITVYSLELLSCNPREKEAEFLAEISSGGYVRSLAYDIGKKLGIGGYMKELRRLKIDEISVEEAVSLEEFLSSENPEEYVLPVDTLFRVIPEVRLNTFEAGKILQGKRILIKNYDYEGLVKIYEDSKFIGIGELKGGVLSPKRLLV,soluble
12,MARLTVHTLETAPEAAKPRVEAVPKNNGFIPNLIGVLANAPEALAFYQEVGKLNAANSLTAGEVEVIRIIAVRTNQCSFCVAGHTKLATLKKLLSEQSLNAARALAAGKSDDAKLGALAAFTQAVMAKKGAVSDDELNAFLEAGYNRQQAVEVVMGVALATLCNYANNLAQTEINPKLQAYA,not soluble
13,MENELQDFPEPNYNVHAFYYVWYGSPQFDGKYVHWDHPLLPHWDPKVASSYSTGRHQPPEDIGANFYPALGPYSSRDPAVLEEHMRQLRMAAVGVLAVSWYPRSMKDDNGEEIDSLLPLILDAADKYQLKVLYNLYVFKNVICINKYV,not soluble
14,MGSDKIHHHHHHMQHWAIFATDSYSGSLLGRMLAADIQPDEGQICNLPARVGWVSLGLQQALLERELAKDELDYGSTVEALVLECCQDSAQLPALLQKVGLEPLRQRGFRQLSTGETRRVMLARALAMLPQLLILDDPYAGLDAEHQGSLSELLCEVAAHSQLLVITSRQEELPPCISHVALFNSEMLKSGQHVHKLSAPMSIEQWHSHPVMAQLNALSASRSDELLALMERQRHNAEAFDPLVEIKNGKVEYVSCLIFKGVNWRINAGQHWQVRGPNGCGKSTLLGLILGDHPQCYSNDITLFGRPRGSGESIWQIKQRIGIVSSALHLQYRVSCSALDVLLSGFYDSIGLYHKPTKPQVDLAKEWLAILHMNEFASTGFKQLDYGQQRLLLIGRALIKQPLLLILDEPYQGLDFINRTLVMRALEMIAEHHLSQLLYVSHHREDALPAIKNFVDFIKQDNGYSVEVSHRPNELAQRMPIP,not soluble
